In patent US20030068675, “Position dependent recognition of GNN nucleotide triplets by zinc fingers” (published 2003):

Assays:
Test in all cases: EMSA
Conditions in all cases: tags: MBP fusion
ZFP SBS#722 = molecular target: T1, ZFP SBS#722 (synthetic)
T1 chain: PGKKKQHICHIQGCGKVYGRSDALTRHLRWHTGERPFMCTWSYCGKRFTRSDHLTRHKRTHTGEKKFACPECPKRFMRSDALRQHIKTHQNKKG
In short: (§1)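 Purified ZFP was titrated against labeled double-stranded target (1 nM or lower, at least 10-fold below expected Kd) carrying the natural binding site with flanks. Binding buffer was 10 mM Tris pH 7.5, 100 mM KCl, 1 mM MgCl2, 0.1 mM ZnCl2, 5 mM DTT, 10% glycerol, 0.02% BSA, with equilibration for at least 45 min. Bound and free target were separated on a 10% polyacrylamide gel.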

ZFP SBS#718 = molecular target: T2, ZFP SBS#718 (synthetic)
T2 chain: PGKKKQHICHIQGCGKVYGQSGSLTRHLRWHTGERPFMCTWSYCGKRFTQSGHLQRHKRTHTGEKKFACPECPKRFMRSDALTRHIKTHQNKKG
In short: as §1

ZFP SBS#717 = ZFP SBS#717 (synthetic)
In short: as §1

ZFP SBS#716 = molecular target: T3, ZFP SBS#716 (synthetic)
T3 chain: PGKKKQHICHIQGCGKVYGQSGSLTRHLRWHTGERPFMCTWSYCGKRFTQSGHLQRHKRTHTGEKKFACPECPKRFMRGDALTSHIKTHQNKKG
In short: as §1

ZFP SBS#719 = molecular target: T4, ZFP SBS#719 (synthetic)
T4 chain: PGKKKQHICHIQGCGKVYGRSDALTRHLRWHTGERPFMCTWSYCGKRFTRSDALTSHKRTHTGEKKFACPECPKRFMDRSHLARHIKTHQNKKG
In short: as §1

ZFP SBS#724 = molecular target: T5, ZFP SBS#724 (synthetic)
T5 chain: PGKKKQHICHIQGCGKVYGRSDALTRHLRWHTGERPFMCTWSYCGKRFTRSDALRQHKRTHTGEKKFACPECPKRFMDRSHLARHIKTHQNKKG
In short: as §1

ZFP SBS#699 = ZFP SBS#699 (synthetic)
Sequence of ZFP SBS#699 (synthetic) (chain, as listed by the source): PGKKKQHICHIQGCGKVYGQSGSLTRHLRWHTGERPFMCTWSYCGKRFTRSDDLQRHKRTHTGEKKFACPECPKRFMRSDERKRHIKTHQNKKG
In short: as §1

ZFP SBS#700 = ZFP SBS#700 (synthetic)
Sequence of ZFP SBS#700 (synthetic) (chain, as listed by the source): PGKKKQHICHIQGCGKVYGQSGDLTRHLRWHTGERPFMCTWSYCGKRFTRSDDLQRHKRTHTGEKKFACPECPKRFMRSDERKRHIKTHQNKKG
In short: as §1

ZFP SBS#705 = molecular target: T6, ZFP SBS#705 (synthetic, UniProt P08047)
T6 chain: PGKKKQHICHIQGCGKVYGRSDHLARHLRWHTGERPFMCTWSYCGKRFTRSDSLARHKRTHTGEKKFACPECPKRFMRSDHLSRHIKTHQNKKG
In short: as §1

ZFP SBS#706 = molecular target: T7, ZFP SBS#706 (synthetic, UniProt P08047)
T7 chain: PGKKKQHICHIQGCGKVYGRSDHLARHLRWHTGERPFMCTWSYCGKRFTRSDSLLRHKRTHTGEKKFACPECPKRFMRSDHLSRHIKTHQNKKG
In short: as §1

ZFP SBS#714 = molecular target: T8, ZFP SBS#714 (synthetic)
T8 chain: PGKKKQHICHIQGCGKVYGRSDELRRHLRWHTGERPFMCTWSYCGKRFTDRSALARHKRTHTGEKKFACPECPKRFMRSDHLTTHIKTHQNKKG
In short: as §1

ZFP SBS#715 = molecular target: T9, ZFP SBS#715 (synthetic)
T9 chain: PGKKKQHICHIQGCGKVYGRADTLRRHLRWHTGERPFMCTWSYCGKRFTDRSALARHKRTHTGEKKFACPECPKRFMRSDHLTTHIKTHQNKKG
In short: as §1

ZFP SBS#702 = molecular target: T10, ZFP SBS#702 (synthetic)
T10 chain: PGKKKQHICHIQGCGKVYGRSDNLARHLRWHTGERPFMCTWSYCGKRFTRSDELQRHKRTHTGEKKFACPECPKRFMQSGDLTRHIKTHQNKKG
In short: as §1

ZFP SBS#701 = ZFP SBS#701 (synthetic)
Sequence of ZFP SBS#701 (synthetic) (chain, as listed by the source): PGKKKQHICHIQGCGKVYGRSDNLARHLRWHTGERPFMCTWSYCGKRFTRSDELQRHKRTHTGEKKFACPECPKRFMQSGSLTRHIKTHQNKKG
In short: as §1

ZFP SBS#731 = ZFP SBS#731 (synthetic)
Sequence of ZFP SBS#731 (synthetic) (chain, as listed by the source): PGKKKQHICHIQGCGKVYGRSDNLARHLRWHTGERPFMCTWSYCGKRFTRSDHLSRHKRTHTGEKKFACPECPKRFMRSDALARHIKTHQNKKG
In short: as §1

ZFP SBS#725 = ZFP SBS#725 (synthetic)
Sequence of ZFP SBS#725 (synthetic) (chain, as listed by the source): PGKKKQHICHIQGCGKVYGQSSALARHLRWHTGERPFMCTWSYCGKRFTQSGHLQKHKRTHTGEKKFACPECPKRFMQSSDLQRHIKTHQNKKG
In short: as §1

ZFP SBS#695 = molecular target: T11, ZFP SBS#695 (synthetic)
T11 chain: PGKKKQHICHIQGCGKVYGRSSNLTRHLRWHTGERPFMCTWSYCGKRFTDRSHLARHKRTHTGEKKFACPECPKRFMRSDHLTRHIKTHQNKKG
In short: as §1

ZFP SBS#698 = molecular target: T12, ZFP SBS#698 (synthetic)
T12 chain: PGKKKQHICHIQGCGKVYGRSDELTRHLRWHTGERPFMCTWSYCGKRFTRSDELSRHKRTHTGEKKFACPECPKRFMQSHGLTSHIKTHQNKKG
In short: as §1

ZFP SBS#697 = molecular target: T13, ZFP SBS#697 (synthetic)
T13 chain: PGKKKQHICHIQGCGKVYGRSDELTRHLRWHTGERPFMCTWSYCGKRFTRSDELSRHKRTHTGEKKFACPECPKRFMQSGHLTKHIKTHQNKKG
In short: as §1

ZFP SBS#427 = ZFP SBS#427 (synthetic)
Sequence of ZFP SBS#427 (synthetic) (chain, as listed by the source): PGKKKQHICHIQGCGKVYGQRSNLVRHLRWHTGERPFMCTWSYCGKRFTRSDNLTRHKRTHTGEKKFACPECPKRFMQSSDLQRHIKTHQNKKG
In short: as §1

ZFP SBS#374 = ZFP SBS#374 (synthetic)
Sequence of ZFP SBS#374 (synthetic) (chain, as listed by the source): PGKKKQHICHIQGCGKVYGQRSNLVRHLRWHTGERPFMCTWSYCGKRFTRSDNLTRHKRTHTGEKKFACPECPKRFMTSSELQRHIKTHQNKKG
In short: as §1

ZFP SBS#711 = molecular target: T14, ZFP SBS#711 (synthetic)
T14 chain: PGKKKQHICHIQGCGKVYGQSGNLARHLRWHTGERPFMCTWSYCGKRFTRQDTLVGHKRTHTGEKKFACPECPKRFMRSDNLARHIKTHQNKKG
In short: as §1

ZFP SBS#709 = molecular target: T15, ZFP SBS#709 (synthetic)
T15 chain: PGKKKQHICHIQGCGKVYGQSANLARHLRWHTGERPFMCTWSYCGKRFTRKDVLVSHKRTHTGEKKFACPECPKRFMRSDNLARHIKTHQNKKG
In short: as §1

ZFP SBS#710 = ZFP SBS#710 (synthetic)
Sequence of ZFP SBS#710 (synthetic) (chain, as listed by the source): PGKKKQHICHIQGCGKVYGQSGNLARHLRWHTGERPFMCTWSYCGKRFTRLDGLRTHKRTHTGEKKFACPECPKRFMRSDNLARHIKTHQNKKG
In short: as §1

ZFP SBS#601 = molecular target: T16, ZFP SBS#601 (synthetic)
T16 chain: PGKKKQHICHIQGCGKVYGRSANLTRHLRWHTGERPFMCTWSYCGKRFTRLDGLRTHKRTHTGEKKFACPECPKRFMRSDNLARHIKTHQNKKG
In short: as §1

ZFP SBS#708 = molecular target: T17, ZFP SBS#708 (synthetic)
T17 chain: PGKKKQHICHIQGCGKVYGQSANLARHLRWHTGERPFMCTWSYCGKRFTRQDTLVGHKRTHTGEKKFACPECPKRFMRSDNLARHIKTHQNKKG
In short: as §1

ZFP SBS#602 = molecular target: T18, ZFP SBS#602 (synthetic)
T18 chain: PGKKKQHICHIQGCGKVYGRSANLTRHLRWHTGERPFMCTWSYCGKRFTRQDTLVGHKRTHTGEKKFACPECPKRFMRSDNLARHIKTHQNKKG
In short: as §1

ZFP SBS#603 = ZFP SBS#603 (synthetic)
Sequence of ZFP SBS#603 (synthetic) (chain, as listed by the source): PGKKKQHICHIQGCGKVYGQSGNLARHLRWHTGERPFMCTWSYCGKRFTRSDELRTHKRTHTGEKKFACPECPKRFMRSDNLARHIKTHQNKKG
In short: as §1

ZFP SBS#600 = ZFP SBS#600 (synthetic)
Sequence of ZFP SBS#600 (synthetic) (chain, as listed by the source): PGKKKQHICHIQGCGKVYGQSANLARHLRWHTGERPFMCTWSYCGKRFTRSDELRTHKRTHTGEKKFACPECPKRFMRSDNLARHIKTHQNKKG
In short: as §1

ZFP SBS#720 = molecular target: T19, ZFP SBS#720 (synthetic)
T19 chain: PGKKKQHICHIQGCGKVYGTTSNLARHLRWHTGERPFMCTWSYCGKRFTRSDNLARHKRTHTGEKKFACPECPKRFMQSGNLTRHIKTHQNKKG
In short: as §1

ZFP SBS#726 = ZFP SBS#726 (synthetic)
Sequence of ZFP SBS#726 (synthetic) (chain, as listed by the source): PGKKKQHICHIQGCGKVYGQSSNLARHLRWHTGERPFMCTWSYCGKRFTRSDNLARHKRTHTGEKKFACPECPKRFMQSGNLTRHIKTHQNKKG
In short: as §1

ZFP SBS#425 = ZFP SBS#425 (synthetic)
In short: as §1

ZFP SBS#424 = ZFP SBS#424 (synthetic)
Sequence of ZFP SBS#424 (synthetic) (chain, as listed by the source): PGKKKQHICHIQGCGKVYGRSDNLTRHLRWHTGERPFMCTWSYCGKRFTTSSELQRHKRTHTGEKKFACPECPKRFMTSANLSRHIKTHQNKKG
In short: as §1

ZFP SBS#426 = ZFP SBS#426 (synthetic)
Sequence of ZFP SBS#426 (synthetic) (chain, as listed by the source): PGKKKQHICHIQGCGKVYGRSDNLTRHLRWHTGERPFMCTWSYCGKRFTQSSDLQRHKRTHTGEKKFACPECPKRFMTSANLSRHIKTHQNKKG
In short: as §1

ZFP SBS#565 = ZFP SBS#565 (synthetic)
Sequence of ZFP SBS#565 (synthetic) (chain, as listed by the source): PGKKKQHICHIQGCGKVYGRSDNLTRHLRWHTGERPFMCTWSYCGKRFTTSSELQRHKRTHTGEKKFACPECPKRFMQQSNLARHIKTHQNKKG
In short: as §1

ZFP SBS#694 = molecular target: T20, ZFP SBS#694 (synthetic)
T20 chain: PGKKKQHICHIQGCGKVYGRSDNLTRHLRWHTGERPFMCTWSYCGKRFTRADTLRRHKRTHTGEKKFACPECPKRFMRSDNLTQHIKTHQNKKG
In short: as §1

ZFP SBS#692 = molecular target: T21, ZFP SBS#692 (synthetic, UniProt P08047)
T21 chain: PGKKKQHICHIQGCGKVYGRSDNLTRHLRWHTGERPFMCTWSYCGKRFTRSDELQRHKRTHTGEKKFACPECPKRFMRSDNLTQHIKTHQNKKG
In short: as §1

ZFP SBS#689 = molecular target: T22, ZFP SBS#689 (synthetic)
T22 chain: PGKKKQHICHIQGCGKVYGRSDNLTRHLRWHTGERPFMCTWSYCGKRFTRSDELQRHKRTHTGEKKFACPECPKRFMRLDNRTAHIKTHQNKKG
In short: as §1

ZFP SBS#693 = molecular target: T23, ZFP SBS#693 (synthetic)
T23 chain: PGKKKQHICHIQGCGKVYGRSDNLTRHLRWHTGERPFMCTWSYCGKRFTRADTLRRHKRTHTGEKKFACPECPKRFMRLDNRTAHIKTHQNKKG
In short: as §1

B1: ATGGGGGTGG (dsDNA)
DNA 1: ATGGGGGTGG
DNA 2: CCACCCCCAT
Kd (ZFP SBS#722): 0.7 nM

B2: TTGGGAGCAC (dsDNA)
DNA 1: TTGGGAGCAC
DNA 2: GTGCTCCCAA
Kd (ZFP SBS#718): 108 nM | Kd (ZFP SBS#717): 150 nM | Kd (ZFP SBS#716): 200 nM

B3: GGCATGGTGG (dsDNA)
DNA 1: GGCATGGTGG
DNA 2: CCACCATGCC
Kd (ZFP SBS#719): 20 nM | Kd (ZFP SBS#724): 2.5 nM

B4: GCGGCGGCAG (dsDNA)
DNA 1: GCGGCGGCAG
DNA 2: CTGCCGCCGC
Kd (ZFP SBS#699): 21.5 nM | Kd (ZFP SBS#700): 45 nM

B5: GGGGTGGGGC (dsDNA)
DNA 1: GGGGTGGGGC
DNA 2: GCCCCACCCC
Kd (ZFP SBS#705): 0.01 nM | Kd (ZFP SBS#706): 0.05 nM

B6: TGGGTCGCGG (dsDNA)
DNA 1: TGGGTCGCGG
DNA 2: CCGCGACCCA
Kd (ZFP SBS#714): 200 nM | Kd (ZFP SBS#715): 0.46 nM

B7: GCAGCGGAGC (dsDNA)
DNA 1: GCAGCGGAGC
DNA 2: GCTCCGCTGC
Kd (ZFP SBS#702): 73.5 nM | Kd (ZFP SBS#701): 50.5 nM

B8: GTGGGGGAGA (dsDNA)
DNA 1: GTGGGGGAGA
DNA 2: TCTCCCCCAC
Kd (ZFP SBS#731): 12 nM

B9: GCTTGAGTTA (dsDNA)
DNA 1: GCTTGAGTTA
DNA 2: TAACTCAAGC
Kd (ZFP SBS#725): 3000 nM

B10: GGGGGCGAGC (dsDNA)
DNA 1: GGGGGCGAGC
DNA 2: GCTCGCCCCC
Kd (ZFP SBS#695): 850 nM

B11: TGAGCGGCGG (dsDNA)
DNA 1: TGAGCGGCGG
DNA 2: CCGCCGCTCA
Kd (ZFP SBS#698): 300 nM | Kd (ZFP SBS#697): 200 nM

B12: GCTGAGGAA (dsDNA)
DNA 1: GCTGAGGAA
DNA 2: TTCCTCAGC
Kd (ZFP SBS#427): 1 nM | Kd (ZFP SBS#374): 3.3 nM

B13: GAGTCGGAA (dsDNA)
DNA 1: GAGTCGGAA
DNA 2: TTCCGACTC
Kd (ZFP SBS#711): 400 nM | Kd (ZFP SBS#709): 400 nM | Kd (ZFP SBS#710): 400 nM | Kd (ZFP SBS#601): 607 nM | Kd (ZFP SBS#708): 300 nM | Kd (ZFP SBS#602): 617 nM | Kd (ZFP SBS#603): 167 nM | Kd (ZFP SBS#600): 207 nM

B14: GAAGAGGATG (dsDNA)
DNA 1: GAAGAGGATG
DNA 2: CATCCTCTTC
Kd (ZFP SBS#720): 1.6 nM | Kd (ZFP SBS#726): 1.5 nM

B15: GATGCTGAG (dsDNA)
DNA 1: GATGCTGAG
DNA 2: CTCAGCATC
Kd (ZFP SBS#425): 25 nM | Kd (ZFP SBS#424): 100 nM | Kd (ZFP SBS#426): 5.5 nM | Kd (ZFP SBS#565): 100 nM

B16: AAGGCGGAGA (dsDNA)
DNA 1: AAGGCGGAGA
DNA 2: TCTCCGCCTT
Kd (ZFP SBS#694): 28.5 nM | Kd (ZFP SBS#692): 51 nM | Kd (ZFP SBS#689): 82.5 nM | Kd (ZFP SBS#693): 95 nM
